Experimental data: patent US9879058B2, “Use of compounds that selectively modulate astrocytic release of substances through hemichannels of connexins and pannexins, without influencing gap junctions, for the treatment of psychiatric disorders” (Universidad Andres Bello, priority 2012, dated 2018)
“Also recorded” adds a separate entry of the source. No end group written: not given here.

Experiments:
[1] = tested on: hippocampal primary neuronal cultures; test: ATP and glutamate release in neuronal cultures; format: cell-based, rat; settings: peptide 1 mM; neuronal cultures without astrocytes
Procedure: G.2. Neuronal cultures: Hippocampal neurons were obtained from hippocampus of E18 rats. Briefly, hippocampi were dissected as mentioned above for astrocyte cultures. Cells were seeded directly on poly-L-ornithine coated coverslips (1×10^5 cells/coverslip) in Neurobasal medium supplemented with penicillin (5 U/ml), streptomycin (5 μg/ml), B27 supplement and glutamax. Partial medium changes (¼) were done twice a week. H. Dye uptake: For single image visualization of dye uptake, astrocytes were bathed in recording solution [in mM: NaCl (148), KCl (5), CaCl2 (1.8), MgCl2 (1), glucose (5), HEPES (5), pH=7.4] containing 5 μM ethidium (Etd) (Sigma-Aldrich, St-Louis, Mo.), and fluorescence intensity was recorded for 10 min in selected cells (ROI, regions of interest). […] Metafluor software (version 6.2R5, Universal Imaging Co., Downingtown, Pa., USA) was used for off-line image analysis and fluorescence quantification.
I. Measurement of ATP and glutamate release induced by TAT-Cx43L2: Neurons were plated in multi well culture trays (10^6 cells/well/0.5 ml) and 48 h later were used for experiments. Extracellular ATP was measured by luciferin/luciferase bioluminescence assay kit (Sigma-Aldrich, St. Louis, Mo., USA). […]

[2] = target: T1, Cx43 gap junction channels (Rattus norvegicus, UniProt P08050); test: Lucifer yellow dye coupling in astroglial cultures; format: cell-based
T1 construct: endogenous in cells; host or cells: primary hippocampal astrocytes of newborn (PN1) rats
Procedure: F. Immunohistochemistry: Brain slices previously fixed in buffered 4% paraformaldehyde and maintained in 30% sucrose were mounted in gelatin coated glass slides. After rinsing with PBS, slices were blocked and permeabilized with 1% bovine serum albumin (BSA, Sigma-Aldrich), and 3% Triton X-100 in PBS for 1 h at room temperature. After rinsing again, sections were incubated overnight at 4° C. with the primary anti-Cx43 antibody (Sigma). Afterwards, sections were rinsed with PBS and incubated for 1 h at 37° C. with Alexa Fluor® 488-conjugated secondary antibody. To identify neurons and astrocytes, sections were incubated overnight at 4° C. with either monoclonal anti-MAP2 (M 4402, Sigma-Aldrich, St-Louis, Mo.) for neurons or polyclonal anti-GFAP (Sigma-Aldrich, St-Louis, Mo.) for astrocytes. Sections were washed and incubated for 1 h at 37° C. with Alexa Fluor® 568-conjugated secondary antibodies. Finally, slides were washed and permanently mounted using ProLong® (invitrogen). Staining specificity was assayed by incubation of sections in the absence of the primary antibody. Samples were examined using laser scanning confocal microscopy on a Fluoview FV1000 (Olympus). G. Primary Cell Cultures: G.1. Astrocyte cultures: Primary astrocyte cultures were prepared from hippocampus of newborn (PN1) rats. […]
J. Dye Coupling: Astrocytes plated on glass coverslips were bathed with recording medium (HCO3-free F-12 medium buffered with 10 mM HEPES, pH 7.2) and intercellular communication mediated by gap junctions was tested by evaluating the transfer to neighboring cells of Lucifer yellow (LY) (Sigma-Aldrich, St-Louis, Mo.) microinjected into one cell. […] The coupling index was calculated as the mean number of cells to which the dye spread. K. Data Analysis: Data were expressed as Mean+SD. Statistical differences were assessed by unpaired student's t-test (Mann-Whitney) and by one-way analysis of variance (ANOVA) for multiple comparisons, followed by Dunns post hoc test, and considered significant when p<0.05. p-values in the text are written as either <0.01% or <0.05%.

Cx43 hemichannels [3] = target: T2, Cx43 hemichannels (Rattus norvegicus, UniProt P08050); test: Ethidium (Etd) dye uptake in astrocytes; format: cell-based; settings: 10 min preincubation
T2 construct: endogenous in cells; host or cells: primary hippocampal astrocytes of newborn (PN1) rats
Procedure: F. Immunohistochemistry: Brain slices previously fixed in buffered 4% paraformaldehyde and maintained in 30% sucrose were mounted in gelatin coated glass slides. After rinsing with PBS, slices were blocked and permeabilized with 1% bovine serum albumin (BSA, Sigma-Aldrich), and 3% Triton X-100 in PBS for 1 h at room temperature. After rinsing again, sections were incubated overnight at 4° C. with the primary anti-Cx43 antibody (Sigma). Afterwards, sections were rinsed with PBS and incubated for 1 h at 37° C. with Alexa Fluor® 488-conjugated secondary antibody. […]
G.2. […] H. Dye uptake: For single image visualization of dye uptake, astrocytes were bathed in recording solution [in mM: NaCl (148), KCl (5), CaCl2 (1.8), MgCl2 (1), glucose (5), HEPES (5), pH=7.4] containing 5 μM ethidium (Etd) (Sigma-Aldrich, St-Louis, Mo.), and fluorescence intensity was recorded for 10 min in selected cells (ROI, regions of interest). […] Metafluor software (version 6.2R5, Universal Imaging Co., Downingtown, Pa., USA) was used for off-line image analysis and fluorescence quantification.
For data representation, the average of two independent background fluorescence intensity measurements (FB, expressed as arbitrary units, AU) was subtracted from the fluorescence intensity in each cell (F1). […] Slopes of dye uptake were calculated using Microsoft Excel software and expressed as AU/min. […]

Cx43 hemichannels [4] = target: Cx43 hemichannels (Homo sapiens, UniProt P17302); settings: cited from earlier work
[5] = target: Cx43 gap junction channel (Homo sapiens, UniProt P17302); settings: cited from earlier work
Cx43 gap junction channel, sequence (P17302 whole entry): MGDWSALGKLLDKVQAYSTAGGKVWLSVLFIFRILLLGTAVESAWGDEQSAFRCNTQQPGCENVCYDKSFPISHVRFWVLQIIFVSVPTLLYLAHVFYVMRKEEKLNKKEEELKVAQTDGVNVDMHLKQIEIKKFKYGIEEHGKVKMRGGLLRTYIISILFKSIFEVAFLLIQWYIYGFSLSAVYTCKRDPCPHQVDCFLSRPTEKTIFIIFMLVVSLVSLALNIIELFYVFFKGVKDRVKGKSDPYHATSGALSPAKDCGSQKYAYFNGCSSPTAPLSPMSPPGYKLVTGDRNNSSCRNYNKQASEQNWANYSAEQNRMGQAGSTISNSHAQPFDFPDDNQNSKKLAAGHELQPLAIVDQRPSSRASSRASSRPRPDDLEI

T2 sequence (P08050 whole entry): as the sequence (P17302 whole entry) above, with D124E, I164V, K243R, S251T, A253P, A257S, Q263P, S344A, L347V counted along it
T1 sequence (P08050 whole entry): as the sequence (P17302 whole entry) above, with D124E, I164V, K243R, S251T, A253P, A257S, Q263P, S344A, L347V counted along it
Cx43 hemichannels (Homo sapiens, UniProt P17302), sequence (P17302 whole entry): as the sequence (P17302 whole entry) above

## YGRKKRRQRRRDGANVDMHLKQIEIKKFKYGIEEHGK [TAT-Cx43L2, synthetic cell-permeable peptide corresponding to the Cx43L2 region (aa 119-144) of the cytoplasmic loop of Cx43]
[1]
  ATP release in neuronal cultures: did not affect
  glutamate release in neuronal cultures: did not affect
[2]; 1 mM, 10 min incubation, hippocampal astroglial cultures
  astroglial coupling (intracellular transfer of LY): did not affect astroglial coupling
[2]; n=3
  astrocyte coupling incidence: had no effect on astrocyte coupling incidence
  astrocyte coupling index: had no effects on astrocyte coupling index
Cx43 hemichannels [3]; control conditions
  hemichannel activity (Etd uptake): blocked astrocyte hemichannel activity; also recorded: inhibited hemichannel activity
Cx43 hemichannels [3]; divalent cation-free solution (DCFS)
  hemichannel activity (Etd uptake): complete inhibition of hemichannel activity; also recorded: reduced Etd uptake to the same level as in control cells
Cx43 hemichannels [4]
  effect on Cx43 hemichannels, previously shown: selectively block Cx43 hemichannels
[5]
  effect on Cx43 gap junction channel communication, previously shown: without affecting Cx43 gap junction channel communication
